Experimental data from the supplement of paper PMC10567573.

B1: RPAIN (parent)
chain: ISEYEKSLQFDEKCLSIMLAEWEA
B2: GALNT9 (parent)
chain: FTQSGPIVSRATGRCLEVEMSKDA

Variants of: B1
Experiment: protein stability index of a GFP-peptide fusion (GPS, HEK-293T) (PSI 1-6); higher = more stable
Conditions: c terminus: a fixed tail appended
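Also: lentivirally expressed fusions sorted by FACS into six bins by GFP to DsRed ratio, PSI derived from sequencing read proportions per bin multiplied by bin number.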

Protein stability index: each site, then its substitutions
E5: T 1.58; D 1.55
M18: H 2.41; T 2.79
S7: D 1.93
K6: L 1.2
A24: G 2.11; S 1.72; Y 1.25
Q9: L 1.46; V 1.25
D11: G 2.15; T 1.87; R 1.77; A 2.17
K13: R 2.05
Y4: W 1.92; P 1.41; M 2.15
E21: S 2.31; T 3.61
I17: P 3.53; G 2.8; W 1.47; A 1.6
L15: D 4.09; H 3.17; K 4.06
L19: R 2.39; N 3.73
W22: S 2.11; M 1.78
F10: H 3.33; E 3.47; K 3.53
E23: Q 2.06; R 1.85
E12: S 1.92; F 1.99
E3: D 1.81; I 1.74; G 1.41; V 2.93
L8: S 2.68; R 2.38
A20: D 1.91; T 2.25
S2: G 1.72; Y 2.54
S16: C 1.91
C14: N 1.96; Q 2.24
I1: V 2.15

Variants of: B2
Experiment: as above
Conditions: c terminus: a fixed tail appended

Protein stability index: each site, then its substitutions
V18: K 3.26; F 2.61; W 1.74; L 1.79; P 2.59; R 1.94; Q 2.31; Y 1.94; A 1.61; E 1.01; T 2.02; N 2.55; M 1.92; I 2.32; D 2.53; H 1.81
A11: S 1.77; Y 3.67; F 1.06; G 1.95; I 1.67; T 2.24; R 1.65; M 1.73; P 2.31; K 1.83; D 3.15
L16: G 2.52; E 3.65; Y 1.99; W 2.35; C 2.08; A 1.96; K 2.27; N 3.04; V 2.33; H 2.81; D 3.53; F 2.37; R 3.09; I 1.4; P 3.02; T 3.25; M 2.29; S 1.75; Q 2.81
D23: C 1.51; K 1.84; G 1.79; T 1.84; I 1.57; P 1.92; V 2.02; Q 1.95; N 2.42; E 2.44; L 2.07; S 2.67; H 2.3; Y 2.52
G5: Q 2.37; T 2.46; V 2.39; R 1.66; S 2.54; L 1.53; N 2.34; Y 3.35
R14: C 1.78; Y 1.82; L 1.9; K 1.95; H 2.06; F 1.61; T 1.99; S 1.98; V 1.71; A 2.84; N 2.88; E 3.03; I 2.78; P 3.1
E17: F 3.92; K 2.41; P 2.05; G 2.09; D 1.91; S 2.15; C 1.84; V 1.24; R 5.49; N 3.09; Q 2.94; Y 3.5; A 1.03
K22: L 1.95; G 2.7; S 2.12; D 3.38; A 3.13; Q 2.26; Y 2.62; P 3.13; C 2.56; R 1.32; N 2.74; I 1.71; H 1.76
T12: D 2.38; R 2.04; L 1.64; M 1.48; E 3.19; Q 1.56; I 1.89; H 1.58; A 3.14; Y 2.47; V 1.51; K 2.15; N 2.4; P 2.05; S 1.78
M20: K 2.32; D 4.53; E 3.66; L 3.75; I 2.28; Y 2.46; V 2.18; T 3.24; Q 3.23; H 2.65; R 2.73; P 3.38; S 3.05; G 3.21; C 1.89; W 1.55; A 3.61; N 3.34; F 1.93
C15: T 2.99; I 2.7; Y 3.04; D 3.9; K 2.53; V 3.06; S 2.7; P 3.11; N 3.75; L 4.19; Q 3.14; R 3.86; H 3.37; F 2.44; M 2.78
S21: V 2.05; P 2.55; H 1.76; K 1.82; D 1.63; N 1.79; F 1.86; R 3.38; T 2.15; E 2.71; I 1.07; L 1.74; C 1.47; G 1.21; Q 1.34
G13: F 2.15; A 1.86; R 2.6; Q 1.55; V 1.81; Y 4.09; E 2.76; D 3.13; H 1.99; K 1.91; S 1.76; P 1.81; N 2.41; M 1.45; T 2.16; I 1.14
P6: C 1.72; N 1.07; E 1.85; D 2.08; T 1.42; M 3.4
I7: Q 1.98; H 2.66; C 1.89; G 1.79; T 2.36; A 2.25; D 3.31; S 2.52; E 2.63; N 2.73; R 2.08; P 2.78; L 1.18; M 1.78
V8: T 1.42; H 2.58; C 2.04; W 3.04; M 2.38; R 1.83; N 2.03; P 2.07; D 3.27; S 3.41; I 2.54; Q 2.25; G 1.96
E19: P 2.57; R 3.07; G 2.19; D 2.02; M 3.89; K 2.33; V 1.45; N 1.62; L 2.39; S 1.35; T 1.22; A 2.49; Y 1.53; F 2.37; I 1.71; H 1.62
S9: E 2.2; D 2.99; P 2.05; G 2.76; T 1.92; M 2.28; L 2.43; N 2.06; C 2.17; A 4.78; H 1.67; F 2.88
A24: E 2.64; T 2.3; P 3.19; V 1.68; D 2.51; I 1.89; L 2.35; C 2.34; M 1.51; H 2.43; F 1.34; R 2.2; Y 1.75; N 2.78
R10: Q 3.02; P 2.49; K 2.65; S 3.5; H 2.37; A 2.41; V 2.6; G 2.89; T 2.5; D 3.87; F 1.41; L 2.77; C 2.33; I 1.53; M 1.48; N 2.01; Y 2.44; E 3.91
